Laboratory results reported in patent US20250243261A1.

Molecular target: SARS-CoV-2 BQ.1.1 Spike RBD (SARS-CoV-2 BQ.1.1 variant)
Test: BLI, IgG

Chain of LY-1404 WT IgG (antibody) (VH): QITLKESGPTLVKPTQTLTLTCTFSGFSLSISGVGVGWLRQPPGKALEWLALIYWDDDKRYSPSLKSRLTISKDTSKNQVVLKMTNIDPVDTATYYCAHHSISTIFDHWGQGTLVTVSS
Chain of LY-1404 WT IgG (antibody) (VL): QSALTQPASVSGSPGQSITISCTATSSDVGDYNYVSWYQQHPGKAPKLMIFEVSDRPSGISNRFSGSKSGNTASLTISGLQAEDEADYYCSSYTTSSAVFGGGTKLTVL

LY-1404 WT IgG (antibody) was tested. Which Kd did it give?
The Kd was 1700 nM.
